# Measured values taken from patent US20200181257A1 (Chugai, published 2020).
# Where a chain is given by its changes, count along the chain named. Names and notes keep the numbering of the source.
# T1: human Fcγ receptor hFcgRIIa (R) (human, UniProt P12318 36-217)
# T1 construct: also called FcγRIIa (type R); FcγIIA
# T1 chain: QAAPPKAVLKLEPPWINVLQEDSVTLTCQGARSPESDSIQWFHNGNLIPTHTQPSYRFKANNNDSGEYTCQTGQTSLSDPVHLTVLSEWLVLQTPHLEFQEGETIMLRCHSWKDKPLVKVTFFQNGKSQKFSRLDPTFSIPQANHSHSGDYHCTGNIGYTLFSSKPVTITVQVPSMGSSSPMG
# T2: human Fcγ receptor hFcgRIIa (H) (human, UniProt P12318 36-217)
# T2 construct: also called FcγRIIa (type H); FcγIIA
# T2 sequence: T1 chain with R133H
# T3: human Fcγ receptor hFcgRIIb (human, UniProt P31994 43-217, limits assumed)
# T3 construct: Construct used in the SPR assay is not described; also called FcγRIIb; FcγIIB
# T3 sequence: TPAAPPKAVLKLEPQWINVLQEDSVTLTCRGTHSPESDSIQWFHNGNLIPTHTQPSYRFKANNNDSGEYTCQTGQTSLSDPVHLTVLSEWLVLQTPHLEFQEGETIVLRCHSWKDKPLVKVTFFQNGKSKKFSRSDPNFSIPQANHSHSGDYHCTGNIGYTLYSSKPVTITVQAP
# B1: TS2 (antibody)
# heavy: QVQLQESGPGLVRPSQTLSLTCTVSGYSITSDHAWSWVRQPPGRGLEWIGYISYSGITTYNPSLKSRVTMLRDTSKNQFSLRLSSVTAADTAVYYCARSLARTTAMDYWGQGSLVTVSSASTKGPSVFPLAPSSKSTSGGTAALGCLVKDYFPEPVTVSWNSGALTSGVHTFPAVLQSSGLYSLSSVVTVPSSSLGTQTYICNVNHKPSNTKVDKKVEPKSCDKTHTCPPCPAPELLGGPSVFLFPPKPKDTLMISRTPEVTCVVVDISQDEPEVKFNWYVDGVEVHNAKTKPREEQYNSTYRVVSVLTVLHQDWLNGKEYKCKVSNKALPAPIEKTISKAKGQPREPQVYTLPPSRDELTKNQVSLTCLVKGFYPSDIAVEWESNGQPENNYKTTPPVLDSDGSFFLYSKLTVDKSRWQQGNVFSCSVMHEALHNHYTQKSLSLSP
# light: not shown
# notes: anti-IL6R IgG1, G1d with V266I/H268Q/E269D/D270E (EU); also called TS02
# B2: TS7 (antibody)
# heavy: B1 heavy with I268V, Q270H, D271E, E272D, S326H, K328S, A332H
# light: not shown
# notes: anti-IL6R IgG1, G1d with K326S/S324H/A330H (EU); also called TS07
# B3: TS13 (antibody)
# heavy: B1 heavy with I268V, S269P, Q270M, D271E, E272F
# light: not shown
# notes: anti-IL6R IgG1, G1d with S267P/H268M/D270F (EU)
# B4: TS16 (antibody)
# heavy: B1 heavy with I268V, Q270H, D271E, E272D, Q297M, Y298G, S300G
# light: not shown
# notes: anti-IL6R IgG1, G1d with Q295M/Y296G/S298G (EU)
# B5: TS42 (antibody)
# heavy: B1 heavy with L236K, L237R, I268V, Q270H, D271E, E272D, Q297M, Y298G, S300G, N327G
# light: not shown
# notes: anti-IL6R IgG1, G1d with L234K/L235R/Q295M/Y296G/S298G/N325G (EU)
# B6: TS61 (antibody)
# heavy: B1 heavy with I268V, Q270H, D271E, E272D, G387D, Q388P, N391S
# light: not shown
# notes: anti-IL6R IgG1, G1d with G385D/Q386P/N389S (EU)
# B7: TS43 (antibody)
# heavy: B1 heavy with L236K, L237R, I268V, Q270H, D271E, E272D, Q297M, Y298G, S300G, N327H
# light: not shown
# notes: anti-IL6R IgG1, G1d with L234K/L235R/Q295M/Y296G/S298G/N325H (EU)
# B8: TS41 (antibody)
# heavy: B1 heavy with L236K, L237R, I268V, Q270K, D271E, E272F, Q297M, Y298G, S300G, N327H
# light: not shown
# notes: anti-IL6R IgG1, G1d with L234K/L235R/H268K/D270F/Q295M/Y296G/S298G/N325H (EU)
# B9: TS40 (antibody)
# heavy: B1 heavy with L236K, L237R, I268V, Q270K, D271E, E272F, Q297M, Y298G, S300G, N327G
# light: not shown
# notes: anti-IL6R IgG1, G1d with L234K/L235R/H268K/D270F/Q295M/Y296G/S298G/N325G (EU)
# Target: T4, human Fcγ receptor hFcgRIa (human, UniProt P12314 16-292, limits assumed)
# T4 construct: Construct used in the SPR assay is not described; also called hFcγRIa; FcγI
# T4 sequence (P12314 16-292 limits assumed): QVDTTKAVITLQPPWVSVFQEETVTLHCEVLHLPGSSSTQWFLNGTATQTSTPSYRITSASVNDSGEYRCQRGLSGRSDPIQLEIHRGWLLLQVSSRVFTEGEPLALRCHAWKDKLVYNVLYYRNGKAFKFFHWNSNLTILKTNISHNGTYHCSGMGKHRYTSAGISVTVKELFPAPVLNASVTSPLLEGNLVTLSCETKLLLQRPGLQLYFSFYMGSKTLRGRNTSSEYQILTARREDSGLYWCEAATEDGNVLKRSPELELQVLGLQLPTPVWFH
# Assay: SPR, antibody captured on Protein A
# Description: (§1) The CH2 domain, which was modified in this examination, is known to be involved in interaction with several human Fcγ receptors (hereinafter denoted as hFcgRs) which affect effector functions. Therefore, the binding of TS1 and TS19 prepared by using the H chain of anti-IL6R produced in Example 2 to hFcgRs was measured, according to the method described in Reference Example 3.
# (§2) Interactions between antibodies and hFcgRs (hFcgRIa, hFcgRIIa(R), hFcgRIIa(H), hFcgRIIb, hFcgRIIIa(F), and hFcgRIIIa(V)) were analyzed using Biacore T100 (GE Healthcare). HBS-EP+(GE Healthcare) was used for the running buffer, and the measurement temperature was set at 25° C. Protein A (Invitrogen) was immobilized by the amino coupling method, and an antibody of interest was captured thereon. Then, hFcγR solutions diluted using the running buffer were injected to allow interaction with the captured antibody at a flow rate of 30 μL/min for five minutes for hFcγRIa, and at a flow rate of 5 μL/min for one minute for the other hFcγRs. […] Since the hFcγR binding level depends on the amount of captured antibodies, the FcgR-binding levels were corrected so that the capture level of each antibody would be 200 RU (resonance unit) for hFcgRIa and 1000 RU (resonance unit) for the other hFcgRs. The captured antibodies were washed by allowing 10 mM glycine-HCl (pH 1.5) to react for 30 seconds at a flow rate of 30 μL/min to recycle the chip for reuse.
row,binding relative to G1 (=100),Binder
1,98.3,B1
2,99.8,B2
3,63,B3
4,96.8,B4

# Target: T1, human Fcγ receptor hFcgRIIa (R)
# Assay: SPR, antibody captured on Protein A
# Description: as §1, §2
row,binding relative to G1 (=100),Binder
1,67.3,B1
2,117,B2
3,1.2,B3
4,25.3,B4

# Target: T2, human Fcγ receptor hFcgRIIa (H)
# Assay: SPR, antibody captured on Protein A
# Description: as §1, §2
row,binding relative to G1 (=100),Binder
1,123,B1
2,1.2,B3
3,15.9,B4

# Target: T3, human Fcγ receptor hFcgRIIb
# Assay: SPR, antibody captured on Protein A
# Description: as §1, §2
row,binding relative to G1 (=100),Binder
1,61.6,B1
2,126,B2
3,3.4,B3
4,21.7,B4

# Target: T5, human Fcγ receptor hFcgRIIIa (V) (human, UniProt P08637 17-208)
# T5 construct: also called FcγRIIIa allotype V158; FcγIIIA
# T5 sequence (P08637 other isoform, or with tags, fused parts or gaps limits assumed): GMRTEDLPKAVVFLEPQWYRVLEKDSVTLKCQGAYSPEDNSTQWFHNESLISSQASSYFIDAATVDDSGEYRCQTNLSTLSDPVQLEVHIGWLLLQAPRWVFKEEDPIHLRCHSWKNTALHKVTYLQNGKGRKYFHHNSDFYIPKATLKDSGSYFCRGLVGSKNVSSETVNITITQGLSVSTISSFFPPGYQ
# Assay: SPR, antibody captured on Protein A
# Description: as §1, §2
row,binding relative to G1 (=100),Binder
1,130,B1
2,86.2,B2
3,1.4,B3
4,28.9,B4

# Target: T4, human Fcγ receptor hFcgRIa
# Assay: SPR, antibody captured on Protein A
# Remark: another data set of the same source
# Description: (§3) Furthermore, binding ability to hFcgRs was measured by the method described in Reference Example 3.
# as §2
row,binding relative to G1 (=100),Binder
1,-0.2,B5
2,101,B6
3,-0.9,B7
4,0.2,B8
5,-1.8,B9

# Target: T1, human Fcγ receptor hFcgRIIa (R)
# Assay: SPR, antibody captured on Protein A
# Remark: another data set of the same source
# Description: as §3, §2
row,binding relative to G1 (=100),Binder
1,1.3,B5
2,106,B6
3,1.7,B7
4,1.2,B8
5,1.2,B9

# Target: T2, human Fcγ receptor hFcgRIIa (H)
# Assay: SPR, antibody captured on Protein A
# Remark: another data set of the same source
# Description: as §3, §2
row,binding relative to G1 (=100),Binder
1,1.6,B5
2,106,B6
3,-0.1,B7
4,1.4,B8
5,0.7,B9

# Target: T3, human Fcγ receptor hFcgRIIb
# Assay: SPR, antibody captured on Protein A
# Remark: another data set of the same source
# Description: as §3, §2
row,binding relative to G1 (=100),Binder
1,6.9,B5
2,112,B6
3,6.2,B7
4,4.2,B8
5,0.3,B9

# Target: T5, human Fcγ receptor hFcgRIIIa (V)
# Assay: SPR, antibody captured on Protein A
# Remark: another data set of the same source
# Description: as §3, §2
row,binding relative to G1 (=100),Binder
1,1.3,B5
2,96.6,B6
3,1.1,B7
4,1,B8
5,1,B9
